Patent US20210130420A1, “RECOMBINANT BINDING PROTEINS TARGETING HER2 AND SERUM ALBUMIN, AND THEIR USES” (Molecular Partners AG, priority 2016, published 2021)

Key:
mTOR = assay: Phospho-proteome mass spectrometry of BT474 cells; assay type: cell-based, human; conditions: 100 nM, 18 hours
Source text: (§1) Protein #21 was expressed and purified as described in Example 1. […] Cells were then subjected to a phospho-proteome mass-spectrometry analysis as described by Britton, D., et al. (Britton, D., Zen, Y., Quaglia, A., Selzer, S., Mitra, VI., Lössner, C., Jung, S., Bohm, G., Schmid, P., Prefot, P., Hoehle, C., Koncarevic, S., Gee, J., Nicholson, R., Ward, M., Castellano, L., Stebbing, J., Zucht, H. D., Sarker, D., Heaton, N., and Pike, I., 2014. PLOS One 9 (3), e90948).

RAF = assay: Phospho-proteome mass spectrometry of BT474 cells; assay type: cell-based, human; conditions: 100 nM, 18 hours
Source text: as §1

RPS6KB1/S6 Kinase = assay: Phospho-proteome mass spectrometry of BT474 cells; assay type: cell-based, human; conditions: 100 nM, 18 hours
Source text: as §1

AKT [1] = assay: Phospho-proteome mass spectrometry of BT474 cells; assay type: cell-based, human; conditions: 100 nM, 18 hours
Source text: as §1

AKT [2] = assay: Phospho-site specific ELISA, BT474 cells; assay type: cell-based, human; conditions: 100 nM, 18 hours
GXA3039 = assay: Gastric cancer patient derived tumor xenograft mouse model GXA3039; assay type: in vivo; conditions: Protein #21 60 mg/kg, antibodies 10 mg/kg, every three days for 6 times
Description: Further, Protein #21 was expressed and purified as described in Example 1. […] All groups were dosed every three days for 6 times. Briefly, tumor fragments were obtained from xenografts in serial passage in nude mice. After removal from donor mice, tumors were cut into fragments (4-5 mm diameter) for subcutaneous implantation. Mice were randomized into groups when tumors reached a volume of approximately 100-120 mm^3. The day of randomization and treatment initiation is designated as day 0 in each experiment. Tumor growth was monitored by two-dimensional measurement with a caliper on the day of randomization and then twice weekly. Relative volumes of individual tumors (individual RTVs) for Day x were calculated by dividing the individual tumor volume on Day x (Tx) by the individual volume of the same tumor on Day 0 (TO) multiplied by 100%. Tumor inhibition for a particular day (T/C in %) was calculated from the ratio of the median RTV values of test versus control groups multiplied by 100%.

[3] = Storage stability in PBS analysed by SDS-PAGE; assay type: physicochemical; conditions: SDS-PAGE after 1 month at 40° C. in glass vials in PBS at 10 mg/ml
Description: “Improved storage stability” in the context of the present invention means the reduction of the amounts of a degradation band, preferably the reduction of the amount of degradation products, as detected by a Coomassie-stained SDS-PAGE occurring after storage at 40° C. for 1 month at 10 mg/ml in PBS, by at least 5%, 10%, 15%, 20%, 25%, 30%, 35%, 40%, 45%, 50%, or 50%. Methods to assess storage stability by SDS-PAGE are well known to the person skilled in the art. Examples of designed ankyrin repeat domains and recombinant binding proteins with improved storage stability properties are given in Examples 2 and 3.
Protein #13-His, Protein #14-His and Protein #15-His were prepared as described in Example 1, and samples were concentrated to 10 mg/ml in PBS. Protein #14-His and Protein #15-His where then stored for 1 month at −80° C. or at 40° C. in glass vials, followed by analysis on SDS 15% PAGE. […] These findings illustrate that Protein #14-His has improved storage stability compared to Proteins #13-His and Protein #15-His.
A storage stability improvement is also observed, when testing the storage stability of Protein #21 and Protein #22 (recombinant binding proteins consisting of the amino acid sequences corresponding to SEQ ID NOs: 21 and 22, respectively). Protein #21 and Protein #22 are prepared as described in Example 1, samples are concentrated to 10 mg/ml in PBS and stored for 1 month at −80° C. in or at 40° C. in glass vials, followed by analysis on standard size-exclusion chromatography.

[4] = molecular target: extracellular domains of HER3 (Homo sapiens, UniProt P21860); assay: Surface plasmon resonance interaction with HER3; assay type: binding
MAPK1 and MAPK3 = assay: Phospho-proteome mass spectrometry; assay type: cell-based; conditions: 100 nM, 18 hours
Source text: as §1, with “e90948). […] At other phosphorylation sites, phosphorylation is increased (772).” for “e90948).”

Foxo3a protein [5] = assay: Cellular levels of Foxo3a protein in BT474 cells; assay type: cell-based, human; conditions: compared to an exposure to PBS only
Source text: as §1
(§2) It is known to the practitioner in the art, that Akt1 phosphorylates Foxo3a, resulting in the degradation of Foxo3a and promotion of cell survival. Inhibition of Act phosphorylation leads to stabilization of Foxo3a and thus increase in Foxo3a levels. At increased levels Foxo3a can translocate to the nucleus and induce apoptosis.

Foxo3a protein [6] = assay: Cellular levels of Foxo3a protein in NCI-N87 cells; assay type: cell-based; conditions: compared to an exposure to PBS only
Source text: as §1, §2

B1: Protein #21: SEQ ID NO: 21; HER2 binding domains (SEQ ID NOs: 16, 17) flanked by two serum albumin binding domains (SEQ ID NO: 14), SEQ ID NO: 9 linkers (protein)
chain: GSDLGKKLLEAARAGQDDEVRELLKAGADVNAKDYFSHTPLHLAARNGHLKIVEVLLKAGADVNAKDFAGKTPLHLAANEGHLEIVEVLLKAGADVNAQDIFGKTPADIAADAGHEDIAEVLQKAAGSPTPTPTTPTPTPTTPTPTPTGSDLGIKLLFAAAKGQDDEVRELLKAGADVNAKDFQGVTPLHIAAQSGHLEIVEVLLKAGADVNAKDVTGDTPLHLAAQHGHLEIVEVLLKAGADVNAQDERGWTPADLAADWGHEDIAEVLQKAAGSPTPTPTTPTPTPTTPTPTPTGSDLGKKLLEAARAGQDDEVRELLKAGADVNAKDEYGLTPLYLATAHGHLEIVEVLLKAGADVNAVDAIGFTPLHLAAFIGHLEIAEVLLKAGADVNAQDKFGKTPADIAAGAGNEDIAEVLQKAAGSPTPTPTTPTPTPTTPTPTPTGSDLGKKLLEAARAGQDDEVRELLKAGADVNAKDYFSHTPLHLAARNGHLKIVEVLLKAGADVNAKDFAGKTPLHLAANEGHLEIVEVLLKAGADVNAQDIFGKTPADIAADAGHEDIAEVLQKAA
modifications: Protein comprising four designed ankyrin repeat domains
mTOR S2448/S2454 phosphorylation (mTOR): 0.79 fold change to PBS
RAF S642 phosphorylation (RAF): 0.81 fold change to PBS
RAF T631/T638/T640/T641/S642 phosphorylation (RAF): 0.48 fold change to PBS
RPS6KB1/S6Kinase S441/T444/S447 phosphorylation (RPS6KB1/S6 Kinase): 0.63 fold change to PBS
RPS6KB1/S6Kinase T444/S447 phosphorylation (RPS6KB1/S6 Kinase): 0.92 fold change to PBS
AKT S124 phosphorylation (AKT [1]): 0.99 fold change to PBS
AKT S129 phosphorylation (AKT [1]): 0.93 fold change to PBS
AKT S473 phosphorylation (AKT [2]): 0.16 fold change to PBS
inhibition of tumor growth, first experiment (GXA3039; GXA3039, FIG. 4C): strong inhibition of tumor growth
inhibition of tumor growth, second experiment (GXA3039; GXA3039, FIG. 4D): strong inhibition of tumor growth
amounts of degradation products compared to Protein #22 [3]: lower amounts of degradation products
interaction with extracellular domains of HER3 [4]: does not interact
phosphorylated peptides that map to MAPK1 and MAPK3 (MAPK1 and MAPK3): considerably downregulated
increase of cellular levels of Foxo3a protein (Foxo3a protein [5]): 1.88 fold
increase of cellular levels of Foxo3a protein (Foxo3a protein [6]): 2.8 fold
